In patent publication US9089613B2, “Drug activation system” (BANGOR UNIVERSITY, priority 2009, dated 2015):

B1: NfnB (unbound): his-tagged wildtype NfnB nitroreductase from Escherichia coli K12, free in solution (protein, UniProt P38489 1-217, looked up)
Oxygen-insensitive NAD(P)H …: MDIISVALKRHSTKAFDASKKLTPEQAEQIKTLLQYSPSSTNSQPWHFIVASTEEGKARVAKSAAGNYVFNERKMLDASHVVVFCAKTAMDDVWLKLVVDQEDADGRFATPEAKAANDKGRKFFADMHRKDLHDDAEWMAKQVYLNVGNFLLGVAALGLDAVPIEGFDAAILDAEFGLKEKGYTSLVVVPVGHHSVEDFNATLPKSRLPQNITLTEV
modifications: His tag
notes: his-tagged wildtype NfnB nitroreductase from Escherichia coli K12, free in solution
B2: NfnB (bound to gold): recombinant NfnB nitroreductase immobilised onto 20 nm gold colloid (conjugate, UniProt P38489 1-217, looked up)
Oxygen-insensitive NAD(P)H …: B1 Oxygen-insensitive NAD(P)H …
modifications: immobilised on gold colloid
notes: recombinant NfnB nitroreductase immobilised onto 20 nm gold colloid

Assay: Enzyme reactivity to prodrugs before and after attachment to colloidal gold (UV/Vis, NADH oxidation at 340 nm, hydroxylamine formation at 420 nm)
Type: biochemical
Details: for Specific activity: CB1954 prodrug, excess NADH, 37° C., bound samples on 20 nm gold colloid at molar ratio 87:1 enzymes:gold; for Retained activity (%): compared to the same concentration of enzyme free in solution, CB1954, molar ratio 87:1 enzymes:gold
Description: The ability of the different nitroreductases to metabolise the selected prodrugs is assessed as the conversion of NADH to NAD^+ by UV-vis spectra. The kinetic parameters of the purified enzymes are measured by UV-vis spectra before and after their attachment to gold particles based on their ability to use NADH or an alternative cofactor such as for example nicotinic acid riboside for the reduction of the prodrugs.
For these experiments, a 300 molar equivalents of enzyme were incubated with gold colloid, as this appeared to be the minimum amount of enzyme to cover the gold nanoparticle surface as determined by UV/Vis spectrometry, electrophoresis, and stability experiments. 3.206 nmol of the NfnB and cys-NfnB enzymes in ultra pure water were incubated with 1.5 ml 20 nm Naked Gold® (7.125×10^−3 μM) at a temperature of 4° C. overnight. As controls, the same treatment was carried out for NfnB and cys-NfnB in the absence of gold colloid. The next day the solutions were divided in half and each made up to a total volume of 970 μl using ultra pure water. To each sample, 20 μl of NADH (10 mM) were added and incubated at a temperature of 37° C. for 5 min. The absorbance spectra (750 nm-200 nm) were recorded every 1.5 min for 20 min upon the addition of 10 μl CB 1954 (10 mM) or 20 μl SN 23862 (5 mM) to the test sample, and an equivalent volume of dimethyl sulfoxide (DMSO) to the reference solution. The oxidation of NADH, measured as the decrease at 340 nm, was used as an indication of reactivity of the enzyme for the substrate. The reactivity experiments were done for enzyme: gold conjugate solutions and for enzymes free in solution.
The ability of both recombinant NfnB and cys-NfnB to activate the CB1954 prodrug, before and after attachment to the gold colloid were compared. The free enzyme is known to be active as a dimer in which each monomer is closely associated with a flavin mononucleotide (FMN) molecule, and has two substrate binding pockets as explained in Lovering et al. (Lovering A. L., Hyde E. I., Searle P. F. and White S. A., in Journal of Molecular Biology, 309: 203-213, 2001) or in Zenno et al. (Zenno S, Koike H, Tanokura M and Saigo' K, in Journal of Biochemistry, 120: 736-744, 1996). […]
The formation of hydroxylamine products was monitored at 420 nm using UV/Vis spectroscopy in the presence of enzyme and excess NADH as previously described. […]
It was observed that both the NADH and CB1954 substrates were consumed in the presence of recombinant NfnB, with the simultaneous production of the hydroxylamine product. The same experiment was performed for recombinant NfnB immobilised onto the gold colloid at a molar ratio of 87:1 enzymes to gold, to ensure that any activity measured was not due to excess enzyme free in solution. […]

| Molecule | Specific activity [µmol/min/mg] | Retained activity (%) |
| --- | --- | --- |
| B1 | 0.169 | 100 |
| B2 | 0.168 | 99.5 |
